Laboratory results: the supplement of paper PMC10126150
± gives the standard deviation of the averaged measurements.

Tested on: ATP
Assay: switch fluorescence ratio, 500 uM ATP over buffer (Cy3 cluster intensity, sum of 5 cycles each) (fold (ratio)); higher = stronger signal-on switching upon ATP binding; sequences stand for … in TCGTCGGCAGCGTCAGATGTGTATAAGAGACAGTTTTTTTTTTTTTTTTTTTTTTTTT…TC
Details: aptamer strand: ATP DNA aptamer (quencher-CACCTGGGGGAGTATTGCGGAGGAAGG + anchor), 100 nM annealed; ATP concentration: 500 uM
Summary of the method: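 Exposure to 500 uM ATP lasted 15 min at 22 °C before imaging, and a selection-buffer image was taken beforehand, for Cy3-labelled switching-strand clusters on a modified Illumina MiSeq flow-cell annealed to 100 nM quencher-labelled ATP aptamer. Five buffer/ATP cycles were run with NaOH stripping and re-annealing between them. The fluorescence ratio per cluster is summed target-cycle over summed buffer-cycle Cy3 intensity, averaged per switch-domain sequence. Clusters outside 100-1000 RFU were excluded.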

| Sequence | switch fluorescence ratio |
| --- | --- |
| AGTGTGAGGT | 0.9858 ± 0.0091 |
| ATGTTGAGTG | 0.995 ± 0.031 |
| GAAGTAAAGT | 1.06 ± 0.15 |
| TAACGGTCAG | 1.025 ± 0.0095 |
| AATGGGCACA | 1 ± 0.042 |
| GGTGGTGGGG | 0.968 ± 0.03 |
| CTAGCACTGT | 1.045 ± 0.0022 |
| ATATATGGCT | 0.999 ± 0.035 |
| TTGGTAGTGG | 0.977 ± 0.028 |
| TTATGTTACT | 1.059 ± 0.0023 |
| AAGGCCGGCG | 1.01 ± 0.017 |
| CGTCATTTAC | 1.63 ± 0.074 |
| GGAAACTTAG | 1.019 ± 0.0089 |
| CGGTTTATAA | 0.981 ± 0.013 |
| TATTCAGAGG | 0.974 ± 0.02 |
| GCGATTTGGC | 1.01 ± 0.056 |
| TTAGGTCTCT | 0.977 ± 0.025 |
| AGGTTTTTTT | 0.993 ± 0.017 |
| GGTGGGTGCT | 0.995 ± 0.052 |
| TGACTGCGGG | 1.01 ± 0.015 |
| TGGGGCCCGG | 0.984 ± 0.019 |
| GTTAAAGATT | 1.001 ± 0.0083 |
| TTTGTCTTC | 0.95 ± 0.015 |

| Sequence | switch fluorescence ratio |
| --- | --- |
| GGGTGTATTG | 1.01 ± 0.044 |
| GGGATGTTTG | 0.987 ± 0.017 |
| ATATAGGCTG | 1.01 ± 0.018 |
| CCTGGAAATT | 1.02 ± 0.023 |
| GGGGTTCATG | 0.9675 ± 0.006 |
| TATTGGCGCT | 0.984 ± 0.018 |
| CTGTCTTATG | 1 ± 0.068 |
| AACGACGACG | 1.16 ± 0.05 |
| GCGAATGTTT | 0.9812 ± 0.0029 |
| CTATTCAGGT | 1.01 ± 0.032 |
| GCTCCTCGCT | 1.23 ± 0.081 |
| TGATTTAGGA | 1.01 ± 0.036 |
| CCTCGATTCA | 1.03 ± 0.017 |
| ATGGGCGCAG | 0.99 ± 0.05 |
| GGGGAAACCT | 2.21 ± 0.77 |
| AAAGGGGTGG | 0.992 ± 0.043 |
| CTAATTGGCG | 1.02 ± 0.04 |
| TTATGTGCTG | 1.02 ± 0.041 |
| AAGTGGTACA | 0.968 ± 0.049 |
| CGCCCTCTCC | 2.18 ± 0.23 |
| CAGGAGTACA | 1.03 ± 0.012 |
| ATTTTTATAA | 0.987 ± 0.025 |
| ACGTTTTTTG | 0.99 ± 0.015 |

| Sequence | switch fluorescence ratio |
| --- | --- |
| TTAACGGGGG | 0.984 ± 0.043 |
| ATGTGTCCT | 1.016 ± 0.0039 |
| GGGAGAGAGG | 0.984 ± 0.011 |
| TATTCTGGAT | 0.993 ± 0.026 |
| TAAAAAGGGT | 1 ± 0.048 |
| CCAATGGAGG | 0.994 ± 0.034 |
| GAGGGTAAAT | 1.02 ± 0.023 |
| GGCCGAAGCG | 1.07 ± 0.049 |
| GCTCGAGGGT | 1 ± 0.03 |
| TATTGTTAGG | 1.01 ± 0.027 |
| CGCGTGGATC | 1.06 ± 0.047 |
| ACCTTTAACT | 1.03 ± 0.017 |
| GATACTGATA | 1.032 ± 0.0098 |
| AGCAGAGTTG | 1 ± 0.018 |
| TGGAGGTAGT | 0.993 ± 0.033 |
| GGGGGGCGTC | 1.02 ± 0.016 |
| GGGGGAGTCT | 1.11 ± 0.087 |
| CCGTGACAAT | 4.12 ± 0.34 |
| ACTGCGGGTC | 1.031 ± 0.0063 |
| ACAGCATGTA | 0.9589 ± 0.0093 |
| AGGGCTGGAT | 1.06 ± 0.12 |
| AGGCGCGTGG | 1.03 ± 0.013 |
| GCCTTAGTCT | 0.962 ± 0.098 |

| Sequence | switch fluorescence ratio |
| --- | --- |
| TGATAATTAC | 1.19 ± 0.27 |
| GAGGTAGGGG | 0.968 ± 0.021 |
| AGAAGGATTA | 1 ± 0.017 |
| TTCTAAACGT | 1.06 ± 0.078 |
| CAGGGGAGAG | 0.999 ± 0.027 |
| TTAGGCTGCG | 1.06 ± 0.1 |
| CGGATTTATA | 0.979 ± 0.019 |
| TTTATACGT | 0.9783 ± 0.0067 |
| AAGGGTTCCG | 1.01 ± 0.047 |
| ATAGAGGTAG | 0.976 ± 0.017 |
| CTGAGTTGTT | 0.989 ± 0.08 |
| ATAGAGGTGG | 0.9979 ± 0.0022 |
| GAACTGGGGA | 0.984 ± 0.047 |
| TGGTGCATGC | 0.957 ± 0.019 |
| TAAAAGTTAA | 0.981 ± 0.018 |
| GAGCTTAGGA | 0.988 ± 0.013 |
| GGGTTTATTG | 0.998 ± 0.049 |
| TATGGGTTCT | 1 ± 0.031 |
| CTAGATGTAT | 0.985 ± 0.017 |
| AGGGCGTGGC | 0.9876 ± 0.0018 |
| CATGTGTTTT | 0.9744 ± 0.0041 |
| TGGGGATTGA | 1 ± 0.03 |
| GGGGTAAGAT | 0.963 ± 0.054 |

| Sequence | switch fluorescence ratio |
| --- | --- |
| AAAGGGGTCA | 1 ± 0.034 |
| AGTCGGGTAC | 1.04 ± 0.033 |
| TGATTACTAG | 0.974 ± 0.017 |
| GTATAAATGG | 0.978 ± 0.023 |
| CGGGGGGTG | 1.01 ± 0.05 |
| ATAAGGGTAG | 1.028 ± 0.0054 |
| TTGGCTAATA | 1.01 ± 0.018 |
| ACGATCTGTT | 1.0155 ± 0.00017 |
| GGAGATTTTA | 1.04 ± 0.068 |
| CAGGCGTTGC | 1.17 ± 0.19 |
| GTTAGGGTTT | 0.996 ± 0.024 |
| GCACGCCTGG | 1.0842 ± 0.00097 |
| CAGCCGGGGA | 1.02 ± 0.019 |
| CTGATTTAGC | 1.05 ± 0.043 |
| TTAGGGAGAG | 0.996 ± 0.016 |
| AGAACATTGG | 0.985 ± 0.013 |
| GTTTGTGGAG | 0.9683 ± 0.0071 |
| TTTTAACATA | 1.02 ± 0.016 |
| TCGTACACGT | 0.978 ± 0.015 |
| ACCAGCAGCC | 1.21 ± 0.025 |
| GGTTTTCTAA | 0.9838 ± 0.0051 |
| TCGATGATGG | 1.05 ± 0.013 |
| GGGGATAATT | 1.05 ± 0.025 |

| Sequence | switch fluorescence ratio |
| --- | --- |
| ATCGGCGCGC | 0.9957 ± 0.0026 |
| TTGAGTATGG | 0.976 ± 0.028 |
| TGATTTCTTT | 0.997 ± 0.0018 |
| TTTTAGATAT | 0.98713 ± 0.00039 |
| TAAGGGAGTA | 1.004 ± 0.0065 |
| GTGGTTGCGG | 0.987 ± 0.04 |
| ATTAGGTCGG | 0.979 ± 0.023 |
| CATGTTTCTA | 0.995 ± 0.02 |
| GACCGGCGGT | 0.996 ± 0.035 |
| ATGGGGGATG | 0.973 ± 0.028 |
| CATTGTTAGG | 1.01 ± 0.004 |
| GAATCCGCCC | 2.85 ± 0.74 |
| TATCTCTTTT | 1.01 ± 0.041 |
| CGTCGGGGG | 0.982 ± 0.044 |
| TGGGATAAAA | 1.01 ± 0.044 |
| TATACGCTTG | 1.001 ± 0.0079 |
| GGGTTTCGGG | 0.9779 ± 0.0092 |
| GGGGTATACC | 0.956 ± 0.021 |
| CTGTGTGGAG | 0.991 ± 0.013 |
| GTTGGGGCGT | 0.97 ± 0.044 |
| CTTATAAATT | 0.999 ± 0.021 |
| TAGTATAGTT | 0.98 ± 0.016 |
| CTAATTGCAA | 1.05 ± 0.066 |

| Sequence | switch fluorescence ratio |
| --- | --- |
| TGACGCAGGA | 2.53 ± 1.8 |
| TCTATTCTCG | 1.013 ± 0.0056 |
| TTTTTAACTA | 0.993 ± 0.012 |
| TGGTTTGTTG | 0.9686 ± 0.0064 |
| TTAAAAGGT | 1.04 ± 0.056 |
| CTTATCGTTC | 1.02 ± 0.013 |
| ATTTGGGGTA | 1.01 ± 0.024 |
| CATAGGTAAG | 0.9837 ± 0.0022 |
| AGCTATCCCG | 0.991 ± 0.046 |
| ATTGCTGTAC | 1.56 ± 0.048 |
| GGGTCAGGGA | 1.01 ± 0.065 |
| GGGGTGTGGC | 0.977 ± 0.046 |
| GCGTCTTGTG | 1.02 ± 0.11 |
| TGTAAATGTT | 1.03 ± 0.04 |
| TCAAATGTGC | 1.02 ± 0.033 |
| TGGGGCTTCG | 0.92 ± 0.077 |
| CTGGAAGGGT | 1 ± 0.03 |
| GGGTACGGGG | 1 ± 0.03 |
| GAGATGTACC | 1.03 ± 0.026 |
